Measurements published in patent US20260265360A1, “USE OF ANTI-FAM19A5 ANTAGONISTS FOR TREATING HEARING DISORDERS” (NEURACLE SCIENCE CO., LTD., priority 2023, published 2026).

B1: 1-30: anti-FAM19A5 antibody, de-immunized variant of 3-2; VH SEQ ID NO: 235, VL SEQ ID NO: 240 (antibody, V domains shown)
VH: AVTLDESGGGLQTPGGALRLSCKASGFDFESFNMFWVRQAPGKGLEYVSQISSSEEDENYAPAVKGRATISRDNGQSTLYLQMNSLRAEDTGTYYCAKSSYDCPYGHCSSGVDSAGEIDAWGHGTEVIVSS
VL: ALTQPSSVSANPGETVKITCSGGGSEEEQYYYGWYQQKPGSAPVTLIYQDEERPSDIPSRFSGSTSGSTATLTITGVQAGDEADYYCGSWDSEDEDHFGAGTTLTVL
modifications: Low-PI VH, 1-30 VH, 1-17 VH, 1-32 VH, 4-11 VH, 6-10 VH; 1-30 VL
B2: 2-13: anti-FAM19A5 antibody; VH SEQ ID NO: 35, VL SEQ ID NO: 39 (antibody, V domains shown)
VH: AVTLDESGGGLQTPGGALSLVCKASGFTFSSHGMFWVRQTPGKGLEYVAEITNDGSGTNYGSAVKGRATISRDNGQSTVRLQLNNLRAEDTGTYFCARSTYECPGGFSCWGDTGQIDAWGHGTEVIVSS
VL: ALTQPSSVSANPGETVKITCSGGSYSYGWFQQKSPGSALVTVIYWDDERPSDIPSRFSGALSGSTNTLTITGVQADDEAVYFCGTEDISGTAGVFGAGTTLTVL
modifications: 2-13 VH; 2-13 VL

Columns and labels:
[1] = system: C57BL/6 mice; experiment: Effect of anti-FAM19A5 antibody administration itself on hearing ability (ABR threshold); assay type: in vivo, mouse; conditions: 30 mg/kg i.v. once weekly; 2 weeks post antibody administration; no noise exposure
Experimental: FIGS. 5A, 5B, and 5C show the effect of FAM19A5 antagonist administration on hearing ability in mice. The effect on hearing was assessed by measuring auditory brainstem response (ABR) generated after FAM19A5 antagonist administration. FIG. 5A provides a schematic of the experimental design. As shown, anti-FAM19A5 antibody (1-30) or control human IgG antibody was administered to the mice intravenously once a week (30 mg/kg per dose). ABR (i.e., hearing test) was measured prior to the initial administration of the antibodies and then at day 1, week 2, and 8 week post antibody administration. FIG. 5B provides comparison of ABR threshold in the mice prior to the initial administration of the anti-FAM19A5 antibody (box) or the control IgG antibody (circle). […] In both FIGS. 5B and 5C, the ABR threshold was measured at a frequency ranging from 0 to 64 kHz.
To assess whether the administration of a FAM19A5 antagonist itself has any effect on hearing, C57BL/6 mice (8 weeks old) were intravenously administered with either an anti-FAM19A5 antibody (1-30 antibody) or a control human IgG antibody. […] To assess hearing, auditory brainstem response (ABR) threshold was measured prior to the initial antibody administration and then at day 1, 2 weeks, and 8 weeks post antibody administration.

[2] = system: primary mouse spiral ganglion neurons; experiment: Promotion of neurite outgrowth; assay type: cell-based; conditions: neurons isolated at postnatal day 4; neurofilament staining
Experimental: Sprial ganglion neuron were cultured in culture media consisting of high-glucose (4.5 mg/mL) DMEM, 0.1 mg/ml penicillin, 0.1 mg/mL streptomycin, N2 supplement, and 10 µg/mL insulin and was designated here as “5K” because in this media, [K+]=5.4 mM. A depolarizing media, designated as “30K,” in which Na was replaced with equimolar K to raise [K] to 30 mM while maintaining osmolarity was also used.
Dissociated spiral ganglion cell cultures were prepared from postnatal day 4-5 (P4-5) cochleae and maintained using a procedure modified from the methods described by Bok et al., J Neurosci 23 (3): 777-87 (2003), which is incorporated herein by reference in its entirety. The cochleae were aseptically dissected from the temporal bone and submerged in ice-cold HBSS (Gibco). Subsequent steps involved the removal of the bony cochlear capsule and the spiral ligament. The organ of Corti, surrounding connective tissue and modiolar bone was removed while preserving the spiral ganglion neurons within the modiolus. […]
Neurite outgrowth was quantified by measuring the total length of neurites per neuron. Neurons were stained with NF200 at either 2 or 3 DIV, and neurite lengths were measured using the Fiji (Image J). Individual neurons were manually selected, and neurite lengths were determined using the Simple Neurite Tracer plugin. […]

[3] = biological target: T1, FAM19A5 mutants M1 to M8 (Homo sapiens, UniProt Q7Z5A7); experiment: Epitope mapping ELISA with FAM19A5 mutants M1-M8; assay type: binding
T1 construct: made in house; host or cells: phage display with helper phage
T1 sequence (Q7Z5A7 with tags, fused parts or gaps isoform Q7Z5A7-2, change not shown): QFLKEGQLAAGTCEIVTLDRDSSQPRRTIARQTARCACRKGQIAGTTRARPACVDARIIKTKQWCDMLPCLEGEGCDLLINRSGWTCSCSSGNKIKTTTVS
Experimental: (§1) To further characterize the binding epitopes of the anti-FAM19A5 antibodies disclosed in the present disclosure, the amino acid sequences for the different FAM19 family members (i.e., FAM19A1-5) were aligned. […] The amino acid sequences of these regions were replaced with the consensus sequence of the corresponding regions for the FAM19A1-4 proteins. See Table 13 (the mutated amino acid residues are bolded and underlined).
(§2) The mutant FAM19A5-expressing phages were prepared as follows. To prepare the media for phage culture, 55.6 ml of 2M Glucose (D-(+)-Glucose, Sigma), 5 mL of 1M MgCl2 (Magnesium chloride, Junsei) 1 mL of 34 mg/mL chloramphenicol (Sigma) were added to 2×YT media. Colonies obtained through mono-phage ELISA were selected and placed in 5 mL of prepared media (2×YT-GMC) to be cultured for 16 hours at 37° C. with shaking incubator (VS-8480, Vision). 100 μL of each culture was transferred to 10 mL 2×YT-GMC individually which were cultured at 37° C. in the incubator until detection value at O.D. 600 nm reached 0.5. Once detection value has reached 0.5 at O.D. 600 nm, 5 mL of each culture were obtained as samples to be infected. Following sample preparation, 50 μL of […] was added to individual samples then incubated at 37° C. without shaking for 30 minutes and with shaking for additional 30 minutes. Individual cultures were centrifuged for 15 minutes at 3,850 rpm using Micro centrifuge (Micro12, Hanil). The supernatants of centrifuged cultures were removed to be kept separate and replaced with 5 mL of 2×YT media containing 1 mL of IM IPTG (AG Scientific), 5 mL of 1M MgCl2.1 ml of 70 μg/μL kanamycin (Biopure) and 1 mL of Chloramphenicol. The resulting pellets were dispersed thoroughly in newly added media followed by incubation at 30° C. for 16 hours with stirring.

[4] = biological target: T2, FAM19A5 mutants M1 to M8 (Homo sapiens, UniProt Q7Z5A7, A66V/A69S/K72P/R67K/R71F); experiment: Epitope mapping ELISA with FAM19A5 mutants M1-M8; assay type: binding
T2 construct: made in house; host or cells: phage display with helper phage
T2 sequence (Q7Z5A7 26-125 isoform Q7Z5A7-2 A59V/R60K/A62S/R64F/K65P): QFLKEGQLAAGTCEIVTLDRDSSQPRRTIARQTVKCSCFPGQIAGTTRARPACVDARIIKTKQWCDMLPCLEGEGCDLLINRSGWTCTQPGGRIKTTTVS
Experimental: as §1, §2

[5] = system: FAM19A5 mutants M1 to M8; experiment: Epitope mapping ELISA with FAM19A5 mutants M1-M8; assay type: binding
Experimental: as §1, §2

| Molecule | ABR threshold values vs control IgG antibody [1] | neurite length vs control human IgG antibody [2] | binding to FAM19A5 mutant M8 [3] | binding to FAM19A5 mutant M4 [4] | binding to FAM19A5 mutants M1-M3 and M5-M7 [5] |
| --- | --- | --- | --- | --- | --- |
| B1 | remained comparable | promoting neurite outgrowth |  |  |  |
| B2 |  | promoting neurite outgrowth | failed to bind | failed to bind | moderate to high binding |
